Assay results: PMC10397247

Experiments:
[1] = target: T1, P12SHb; assay: two-hybrid library CCNG1;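 note: natural log of median RNA to DNA barcode read ratio; higher means stronger binding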
T1 chain: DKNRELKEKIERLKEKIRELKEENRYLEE

[2] = target: T2, P1SHb; assay: two-hybrid library CCNG1;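 note: natural log of median RNA to DNA barcode read ratio; higher means stronger binding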
T2 chain: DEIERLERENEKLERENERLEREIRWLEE

[3] = target: T3, P2SHb; assay: two-hybrid library CCNG1;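 note: natural log of median RNA to DNA barcode read ratio; higher means stronger binding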
T3 chain: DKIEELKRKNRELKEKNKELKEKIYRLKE

[4] = target: T4, P3SHb; assay: two-hybrid library CCNG1;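 note: natural log of median RNA to DNA barcode read ratio; higher means stronger binding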
T4 chain: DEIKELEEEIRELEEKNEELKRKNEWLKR

[5] = target: T5, P4SHb; assay: two-hybrid library CCNG1;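 note: natural log of median RNA to DNA barcode read ratio; higher means stronger binding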
T5 chain: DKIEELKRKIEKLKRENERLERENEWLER

[6] = target: T6, P5SHb; assay: two-hybrid library CCNG1;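 note: natural log of median RNA to DNA barcode read ratio; higher means stronger binding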
T6 chain: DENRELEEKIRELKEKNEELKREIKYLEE

[7] = target: T7, P6SHb; assay: two-hybrid library CCNG1
T7 chain: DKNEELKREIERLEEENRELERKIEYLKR

[8] = target: T8, P7SHb; assay: two-hybrid library CCNG1
T8 chain: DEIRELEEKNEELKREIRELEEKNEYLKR

[9] = target: T9, P8SHb; assay: two-hybrid library CCNG1
T9 chain: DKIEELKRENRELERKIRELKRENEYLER

[10] = target: T10, P9SHb; assay: two-hybrid library CCNG1
T10 chain: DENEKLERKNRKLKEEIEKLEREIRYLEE

[11] = target: T11, 4H123-AA; assay: two-hybrid library CCmax
T11 chain: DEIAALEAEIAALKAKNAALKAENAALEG

[12] = target: T12, 4H1310-AA; assay: two-hybrid library CCmax; details: mean of both orientations
T12 chain: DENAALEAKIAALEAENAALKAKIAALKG

[13] = target: T13, 4H1351-AA; assay: two-hybrid library CCmax; details: mean of both orientations
T13 chain: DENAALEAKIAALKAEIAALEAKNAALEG

[14] = target: T14, 4H1388-AA; assay: two-hybrid library CCmax; details: mean of both orientations
T14 chain: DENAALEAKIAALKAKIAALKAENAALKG

[15] = target: T15, 4H1401-AA; assay: two-hybrid library CCmax; details: mean of both orientations
T15 chain: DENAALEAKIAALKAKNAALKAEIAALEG

[16] = target: T16, 4H1513-AA; assay: two-hybrid library CCmax; details: mean of both orientations
T16 chain: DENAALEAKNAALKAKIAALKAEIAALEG

[17] = target: T17, 4H1594-AA; assay: two-hybrid library CCmax; details: mean of both orientations
T17 chain: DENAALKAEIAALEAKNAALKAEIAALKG

[18] = target: T18, 4H1629-AA; assay: two-hybrid library CCmax; details: mean of both orientations
T18 chain: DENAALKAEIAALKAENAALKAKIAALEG

[19] = target: T19, 4H1845-AA; assay: two-hybrid library CCmax; details: mean of both orientations
T19 chain: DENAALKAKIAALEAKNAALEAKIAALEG

[20] = target: T20, 4H1874-AA; assay: two-hybrid library CCmax; details: mean of both orientations
T20 chain: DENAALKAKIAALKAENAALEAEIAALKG

[21] = target: T21, 4H2198-AA; assay: two-hybrid library CCmax; details: mean of both orientations
T21 chain: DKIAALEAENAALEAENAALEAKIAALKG

[22] = target: T22, 4H2553-AA; assay: two-hybrid library CCmax; details: mean of both orientations
T22 chain: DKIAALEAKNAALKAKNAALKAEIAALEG

[23] = target: T23, 4H2611-AA; assay: two-hybrid library CCmax; details: mean of both orientations
T23 chain: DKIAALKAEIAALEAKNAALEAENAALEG

[24] = target: T24, 4H2620-AA; assay: two-hybrid library CCmax; details: mean of both orientations
T24 chain: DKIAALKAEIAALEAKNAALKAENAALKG

[25] = target: T25, 4H2648-AA; assay: two-hybrid library CCmax; details: mean of both orientations
T25 chain: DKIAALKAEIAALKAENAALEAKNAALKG

[26] = target: T26, 4H2907-AA; assay: two-hybrid library CCmax; details: mean of both orientations
T26 chain: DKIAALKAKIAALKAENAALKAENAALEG

[27] = target: T27, 4H3056-AA; assay: two-hybrid library CCmax; details: mean of both orientations
T27 chain: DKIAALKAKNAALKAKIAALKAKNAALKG

[28] = target: T28, 4H3133-AA; assay: two-hybrid library CCmax; details: mean of both orientations
T28 chain: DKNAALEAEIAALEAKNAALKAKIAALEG

[29] = target: T29, 4H3162-AA; assay: two-hybrid library CCmax; details: mean of both orientations
T29 chain: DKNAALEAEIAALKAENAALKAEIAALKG

[30] = target: T30, 4H32-AA; assay: two-hybrid library CCmax; details: mean of both orientations
T30 chain: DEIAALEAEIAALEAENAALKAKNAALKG

[31] = target: T31, 4H3378-AA; assay: two-hybrid library CCmax
T31 chain: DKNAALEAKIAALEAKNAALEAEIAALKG

[32] = target: T32, 4H340-AA; assay: two-hybrid library CCmax; details: mean of both orientations
T32 chain: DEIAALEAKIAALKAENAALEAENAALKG

[33] = target: T33, 4H3413-AA; assay: two-hybrid library CCmax; details: mean of both orientations
T33 chain: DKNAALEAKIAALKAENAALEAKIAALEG

[34] = target: T34, 4H3588-AA; assay: two-hybrid library CCmax; details: mean of both orientations
T34 chain: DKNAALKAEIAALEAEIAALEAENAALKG

[35] = target: T35, 4H3606-AA; assay: two-hybrid library CCmax; details: mean of both orientations
T35 chain: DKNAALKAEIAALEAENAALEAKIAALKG

[36] = target: T36, 4H3631-AA; assay: two-hybrid library CCmax; details: mean of both orientations
T36 chain: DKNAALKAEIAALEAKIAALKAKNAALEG

[37] = target: T37, 4H3697-AA; assay: two-hybrid library CCmax; details: mean of both orientations
T37 chain: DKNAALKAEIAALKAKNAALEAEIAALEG

[38] = target: T38, 4H3718-AA; assay: two-hybrid library CCmax; details: mean of both orientations
T38 chain: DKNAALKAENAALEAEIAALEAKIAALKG

[39] = target: T39, 4H384-AA; assay: two-hybrid library CCmax; details: mean of both orientations
T39 chain: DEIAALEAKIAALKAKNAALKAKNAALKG

[40] = target: T40, 4H3865-AA; assay: two-hybrid library CCmax; details: mean of both orientations
T40 chain: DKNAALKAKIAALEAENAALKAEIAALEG

[41] = target: T41, 4H697-AA; assay: two-hybrid library CCmax; details: mean of both orientations
T41 chain: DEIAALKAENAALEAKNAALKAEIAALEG

[42] = target: T42, 4H982-AA; assay: two-hybrid library CCmax; details: mean of both orientations
T42 chain: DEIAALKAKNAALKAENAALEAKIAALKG

For DKNRELKEKIERLKEKIRELKEENRYLEE [P12SHb], the interaction score [1] was -0.206, the interaction score [2] was -1.47 and the interaction score [3] was -1.12. It also gave an interaction score [4] of 0.41, an interaction score [5] of -0.198 and an interaction score [6] of 0.0253. It also gave an interaction score [7] of 0.412, an interaction score [8] of -0.593 and an interaction score [9] of -0.747. For the same binder, the interaction score [10] was 1.48.

DEIAALEAEIAALKAKNAALKAENAALEG [4H123-AA] gave an interaction score [11] of -1.3, an interaction score [12] of -2 and an interaction score [13] of -0.328. The interaction score [14] was -0.318, the interaction score [15] was -1.83 and the interaction score [16] was -1.7. For the same binder, the interaction score [17] was -1.9, the interaction score [18] was -1.79 and the interaction score [19] was -1.73. For the same binder, the interaction score [20] was -0.134, the interaction score [21] was -0.461 and the interaction score [22] was -1.8. The interaction score [23] was 0.00349, the interaction score [24] was 0.675 and the interaction score [25] was 2.1. It also gave an interaction score [26] of 0.0402, an interaction score [27] of -2.08 and an interaction score [28] of -2.05. The interaction score [29] was -1.32, the interaction score [30] was 1.79 and the interaction score [31] was -1.89. For the same binder, the interaction score [32] was 1.64, the interaction score [33] was -1.35 and the interaction score [34] was -0.454. The interaction score [35] was 1.04, the interaction score [36] was -0.979 and the interaction score [37] was -1.64. It also gave an interaction score [38] of -0.602, an interaction score [39] of -0.635 and an interaction score [40] of -1.93. For the same binder, the interaction score [41] was -0.781 and the interaction score [42] was -1.15.
